Assay [1] addresses human AITR expressed on the cell surface (human) (UniProt Q9Y5U5). The experiment in a line: flow cytometry on iTreg cells, surface AITR. For orientation: Flow cytometry measures light scatter and fluorescence of single cells or particles in a stream.
The target is the same in assay [2]. The experiment in a line: flow cytometry on AITR-5 cells (HEK293 overexpressing human AITR); unstained AITR-5 panel: Q1 0.98.
Assay [3] has the same target. The experiment in a line: flow cytometry on human iTreg cells; average of TRX518 and MK4166.

Chain of human AITR expressed on the cell surface (human) (Q9Y5U5 26-241): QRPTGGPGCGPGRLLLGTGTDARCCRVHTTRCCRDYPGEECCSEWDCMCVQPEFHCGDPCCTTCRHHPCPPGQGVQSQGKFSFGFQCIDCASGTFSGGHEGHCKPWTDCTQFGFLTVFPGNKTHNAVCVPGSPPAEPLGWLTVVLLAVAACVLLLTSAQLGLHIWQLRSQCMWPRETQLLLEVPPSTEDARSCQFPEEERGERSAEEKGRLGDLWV

For Isotype control (antibody), the % of iTreg cells in the upper right quadrant (CD4+, antibody-positive) in assay [1] was 0.79%. Also, the % of AITR-5 cells in Q1 (antibody-positive) in assay [2] was determined as 1.95%.

The substance MK4166 (Merck's anti-GITR antibody) gave a % of iTreg cells recognized as positive for human AITR in assay [3] of 19%. Besides, the % of iTreg cells in the upper right quadrant (CD4+, antibody-positive) in assay [1] amounted to 17.1%.

TRX518 (antibody) registered a % of iTreg cells recognized as positive for human AITR in assay [3] of 19%. The % of iTreg cells in the upper right quadrant (CD4+, antibody-positive) in assay [1] was determined as 20.8%.

The record behind these values is patent US20190330358A1.
